{"source": "paper PMC4086275", "about": "“Cryo-EM structure of the Plasmodium falciparum 80S ribosome bound to the anti-protozoan drug emetine” (eLife, 2014)", "biological_target": "T1, eL8, ribosomal protein of the Pf60S subunit (P. falciparum (3D7 strain), UniProt Q8ILL2 1-283)", "T1 construct": "eL8 of the P. falciparum 3D7 cytoplasmic ribosome; total number of residues 283; built residues 40-46, 54-131, 147-283; extensions compared to human 11-24 and 279-283; Native protein as part of the whole 80S ribosome; also called Q8ILL2_PLAF7; PF3D7_1424400; source: endogenous, in Pf80S ribosomes purified from P. falciparum 3D7 parasites (sucrose cushion, 10-40% sucrose gradient)", "T1 sequence (looked up)": "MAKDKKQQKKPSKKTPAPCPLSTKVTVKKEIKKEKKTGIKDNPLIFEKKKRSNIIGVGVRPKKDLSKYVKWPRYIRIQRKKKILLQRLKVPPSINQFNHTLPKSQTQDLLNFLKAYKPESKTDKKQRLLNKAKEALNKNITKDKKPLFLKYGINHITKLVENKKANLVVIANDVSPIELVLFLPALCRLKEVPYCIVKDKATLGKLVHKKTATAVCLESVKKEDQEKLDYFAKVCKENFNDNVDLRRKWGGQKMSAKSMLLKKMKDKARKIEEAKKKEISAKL", "assay": "cryo-EM structure; native Pf80S ribosome purified from parasites, 160 nM, incubated with 1 mM emetine for 15 min at 25°C in 20 mM Hepes pH 7.4, 40 mM KCH3COO, 10 mM NH4CH3COO, 10 mM Mg(CH3COO)2, 5 mM 2-mercaptoethanol; 3.2 Å overall; the two proteins are members of the co-purified ribosome", "settings": "both partners purified", "data": [{"binder": "eS1, ribosomal protein of the Pf40S subunit (natural protein, P. falciparum (3D7 strain), UniProt O97313 1-262, looked up, eS1 of the P. falciparum 3D7 cytoplasmic ribosome; total number of residues 262; built residues 24-233; extension compared to human 245-262; Native protein as part of the whole 80S ribosome; also called PF3D7_0322900; source: endogenous, in Pf80S ribosomes purified from P. falciparum 3D7 parasites (sucrose cushion, 10-40% sucrose gradient)) MAVGKNKRTSKGKKGGKKKVTDVFTKKEWYDLKAPKMFLVRNFGKTLVTKTIGKKLATDSLKGRIYEVNLADLNNDEDQAHKKIKLSCDHIINRDCYTDFCGLSITRDKLCSLIRKGYTLIEGHTDVKTLDNYHLRMFCIAFTKKRQNQTKSTCYAQTSQIKKIRKKMVDIMTAEASKVLLKDLVKKFIPESIGKEIEKQCKKIYPLQNVLIRKVKILKRPKLDISKLMELHTDPKEESGKNVNALPESKEATNILTAELKH", "values": [{"measurement": "binding result", "result": "binds"}]}]}
